B1: Importin subunit beta-5 (Saccharomyces cerevisiae), P53067 (parent)
chain: MDINELIIGAQSADKHTREVAETQLLQWCDSDASQVFKALANVALQHEASLESRQFALLSLRKLITMYWSPGFESYRSTSNVEIDVKDFIREVLLKLCLNDNENTKIKNGASYCIVQISAVDFPDQWPQLLTVIYDAISHQHSLNAMSLLNEIYDDVVSEEMFFEGGIGLATMEIVFKVLNTETSTLIAKIAALKLLKACLLQMSSHNEYDEASRKSFVSQCLATSLQILGQLLTLNFGNVDVISQLKFKSIIYENLVFIKNDFSRKHFSSELQKQFKIMAIQDLENVTHINANVETTESEPLLETVHDCSIYIVEFLTSVCTLQFSVEEMNKIITSLTILCQLSSETREIWTSDFNTFVSKETGLAASYNVRDQANEFFTSLPNPQLSLIFKVVSNDIEHSTCNYSTLESLLYLLQCILLNDDEITGENIDQSLQILIKTLENILVSQEIPELILARAILTIPRVLDKFIDALPDIKPLTSAFLAKSLNLALKSDKELIKSATLIAFTYYCYFAELDSVLGPEVCSETQEKVIRIINQVSSDAEEDTNGALMEVLSQVISYNPKEPHSRKEILQAEFHLVFTISSEDPANVQVVVQSQECLEKLLDNINMDNYKNYIELCLPSFINVLDSNNANNYRYSPLLSLVLEFITVFLKKKPNDGFLPDEINQYLFEPLAKVLAFSTEDETLQLATEAFSYLIFNTDTRAMEPRLMDIMKVLERLLSLEVSDSAAMNVGPLVVAIFTRFSKEIQPLIGRILEAVVVRLIKTQNISTEQNLLSVLCFLTCNDPKQTVDFLSSFQIDNTDALTLVMRKWIEAFEVIRGEKRIKENIVALSNLFFLNDKRLQKVVVNGNLIPYEGDLIITRSMAKKMPDRYVQVPLYTKIIKLFVSELSFQSKQPNPEQLITSDIKQEVVNANKDDDNDDWEDVDDVLDYDKLKEYIDDDVDEEADDDSDDITGLMDVKESVVQLLVRFFKEVASKDVSGFHCIYETLSDSERKVLSEALL

Variants of: B1
Settings: with gsp1_yeast GSP1, P32835

Row | effect of a mutation on the interaction | Variant
1 | decreasing interaction | K909R
